According to patent US20210246195A1 (CZ BIOHUB SF, published 2021):
Like-named read-outs stand apart in the source and are kept apart here.

Columns and labels:
[1] = biological target: T1, Ara h 3 (purified natural peanut allergen) (Arachis hypogaea); experiment: BLI, antibody on anti-human IgG Fc sensors, Ara h 3 as analyte, top 16 nM
T1 construct: mature; bought natural protein; also called natural Ara h 3; NA-AH3-1

BSA [2] = biological target: T2, BSA (UniProt P02769 25-607); experiment: indirect ELISA, OD heat map
T2 construct: also called bovine serum albumin; immobilized BSA
T2 sequence (P02769 25-607 limits assumed): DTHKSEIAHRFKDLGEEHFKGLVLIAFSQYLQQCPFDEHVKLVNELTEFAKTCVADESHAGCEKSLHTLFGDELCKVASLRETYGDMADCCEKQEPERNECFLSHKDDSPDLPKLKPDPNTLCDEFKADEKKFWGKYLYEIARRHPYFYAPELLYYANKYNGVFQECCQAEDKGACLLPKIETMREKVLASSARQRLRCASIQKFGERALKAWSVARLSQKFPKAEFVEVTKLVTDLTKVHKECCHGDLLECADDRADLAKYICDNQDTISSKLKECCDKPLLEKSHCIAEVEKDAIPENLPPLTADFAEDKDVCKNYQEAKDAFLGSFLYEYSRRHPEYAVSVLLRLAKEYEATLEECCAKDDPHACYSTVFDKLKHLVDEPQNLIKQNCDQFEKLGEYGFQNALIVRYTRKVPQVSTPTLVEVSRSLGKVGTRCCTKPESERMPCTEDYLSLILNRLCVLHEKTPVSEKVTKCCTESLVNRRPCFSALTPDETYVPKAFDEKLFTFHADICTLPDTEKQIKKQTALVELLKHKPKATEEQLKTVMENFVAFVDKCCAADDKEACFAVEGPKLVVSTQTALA

[3] = biological target: T1, Ara h 3 (purified natural peanut …); experiment: BLI, antibody on anti-human IgG Fc sensors, Ara h 3 as analyte, top 64 nM
[4] = biological target: T3, Ara h 1 (purified natural peanut allergen) (Arachis hypogaea, UniProt P43238 26-626); experiment: indirect ELISA, OD heat map
T3 construct: mature; bought natural protein; also called natural Ara h 1; NA-AH1-1
T3 sequence (looked up): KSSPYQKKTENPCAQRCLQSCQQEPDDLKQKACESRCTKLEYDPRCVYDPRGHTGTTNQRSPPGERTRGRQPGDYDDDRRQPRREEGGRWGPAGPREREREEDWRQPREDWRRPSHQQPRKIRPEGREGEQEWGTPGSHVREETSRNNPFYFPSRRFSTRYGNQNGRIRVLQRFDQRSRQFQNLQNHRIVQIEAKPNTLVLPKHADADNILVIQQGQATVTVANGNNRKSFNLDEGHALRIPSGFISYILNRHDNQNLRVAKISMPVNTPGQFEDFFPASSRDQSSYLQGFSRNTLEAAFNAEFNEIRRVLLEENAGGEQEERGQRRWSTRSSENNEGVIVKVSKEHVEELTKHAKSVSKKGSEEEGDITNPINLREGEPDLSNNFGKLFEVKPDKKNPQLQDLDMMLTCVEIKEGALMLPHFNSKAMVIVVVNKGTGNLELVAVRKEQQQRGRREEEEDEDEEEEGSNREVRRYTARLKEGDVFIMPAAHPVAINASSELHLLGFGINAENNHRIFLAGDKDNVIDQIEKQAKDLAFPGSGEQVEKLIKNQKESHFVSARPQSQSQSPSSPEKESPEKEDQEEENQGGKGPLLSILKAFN

[5] = biological target: T3, Ara h 1 (purified natural peanut …); experiment: indirect ELISA
[6] = biological target: T1, Ara h 3 (purified natural peanut …); experiment: BLI, antibody on anti-human IgG Fc sensors, Ara h 3 as analyte, top 512 nM
[7] = biological target: T1, Ara h 3 (purified natural peanut …); experiment: BLI, antibody on anti-human IgG Fc sensors, Ara h 3 as analyte, top 128 nM
[8] = biological target: T1, Ara h 3 (purified natural peanut …); experiment: BLI, scatter plot of KDs; the diamond lies on the axis line labelled >10^-7
[9] = biological target: T4, purified recombinant allergen Aspergillus fumigatus 1 (rAsp f 1) (Aspergillus fumigatus, UniProt P67875 28-176); experiment: indirect ELISA (FIG. 19)
T4 sequence: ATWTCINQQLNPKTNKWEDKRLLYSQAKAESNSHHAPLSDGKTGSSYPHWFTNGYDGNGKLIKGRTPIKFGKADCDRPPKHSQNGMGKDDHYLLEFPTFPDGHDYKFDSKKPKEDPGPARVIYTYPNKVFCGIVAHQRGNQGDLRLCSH

BSA [10] = biological target: T2, BSA; experiment: indirect ELISA, OD heat map; remark: listed apart in the source

B1: PA13P1H08 (antibody, human IgG1, V domains shown)
VH: QVQLVNSGGGVVQPGRSLRLSCVASGFTFSTFGIHWVRQAPGKGLEWVAVISNDGEKSESADSVKGRFTPSRDNSKNTVYLQMNNLRVEDTAVYYCAKVLDYSRYSYYYGMDVWGQGTTVIVSS
VL: EIVLTQSPGTLSLSPGGRGTLSCRTSQTINNAHLAWYQHKPGQAPRLLIYGSSERATGVPDRFSGSGSGSDFTLTISSLEAEDFAVYYCQHYGRSPPYTFGPGTKLDIK
notes: human IgG1, kappa; also called Clone PA13P1H08; N-N
[1]
  Kd: 0.3 nM
BSA [2]
  binding result: no binding (tested: 2 ng/µL)

B2: PA13P1H08 variant N-R (antibody, V domains shown)
VH: QVQLVNSGGGVVQPGRSLRLSCVASGFTFSTFGIHWVRQAPGKGLEWVAVISNDGEKSESADSVKGRFTPSRDNSKNTVYLQMNNLRVEDTAVYYCAKVLDYSRYSYYYGMDVWGQGTTVIVSS
VL: not shown
notes: human IgG1, kappa; also called native heavy chain, reverted light chain
[3]
  Kd: 7.4 nM
BSA [2]
  binding result: no binding (tested: 2 ng/µL)
[4]
  binding result: no binding (tested: 2 ng/µL)

B3: PA15P1D05 (antibody, human IgG1, V domains shown)
VH: QVHLVESGGGVVQPGRSLGLSCVASGFTFNYYAIHWVRQAPGKGLEWVAVVSFDGNIIYYADSVKGRFNISRDNSKNTVNLQMNSLRPDDTAVYYCVRDGEYCSGGNCYWGDFDHWGQGSLVTVSP
VL: EIVLTQSPATLSLSPGERATLSCRASQSISSEYLTWFQQKPGQAPRLLIYGAFNRATGIPDRFSGSGSGTDFTLTISSLEPEDFAVYYCQQYANWWTFGQGTKVEIK
notes: human IgG1; also called CF3 IgE PB antibody
[5]
  binding result: no binding
[6]
  Kd: 2 nM

B4: PA15P1D12 (antibody, human IgG1, V domains shown)
VH: QVHLVESGGGVVQPGRSLGLSCAASGFTFNYYAIHWVRQAPGKGLEWVAVVSFDGNIIYYADSVKGRFNISRDNSKNTVNLQMNSLRADDTAVYYCVRDGEYCSGGNCYWGDFDYWGQGTLVTVSP
VL: EIVLTQSPGTLSLSPGERATLSCRASQSISSEYLTWFQQKPGQAPRLLIYGAFNRATGIPDRFSGSGSGTDFTLTISSLEPEDFAVYYCQQYANWWTFGQGTKVEIK
notes: human IgG1; also called CF3 IgG4 PB antibody
[5]
  binding result: no binding
[6]
  Kd: 1.1 nM

B5: PA13P1H08 variant R-R (antibody, V domains shown)
VH: QVQLVESGGGVVQPGRSLRLSCAASGFTFSSYGMHWVRQAPGKGLEWVAVISYDGSNKYYADSVKGRFTISRDNSKNTLYLQMNSLRAEDTAVYYCAKVLDYSNYYYYYGMDVWGQGTTVTVSS
VL: not shown
notes: human IgG1, kappa; also called both chains reverted to the inferred naive rearrangement
[7]
  Kd: > 100 nM
[8]
  Kd: > 100 nM
BSA [2]
  binding result: no binding (tested: 2 ng/µL)
[4]
  binding result: no binding (tested: 2 ng/µL)

B6: 1003320107_C5 (antibody, V domains shown)
VH: QVQLQESGLGLVKPSGTLSLTCAVSGGPMNSSYWWSWVRQSPGGGLEWIGQISHYTNTKYNPSFKNRVSISIDKSKNEFSLRLTYVTGADTGVYYCVGERDWKDPNWFDPWGQGRLVTVSS
VL: QSVLTQPPSVSGAPGQRVTISCTGSNSNIGAGQDVHWYQHFPGTAPKLVIYGNSNRPSGVPDRFSGSKSGTSASLAISGLQADDEADYYCQSYDKSLSSSLFGGGTKLTVL
notes: also called Clone 1003320107_C5
[9]
  binding result: binds
BSA [10]
  binding result: no binding (tested: 2 ng/µL)

B7: 1003320107_F3 (antibody, V domains shown)
VH: QVQLQESGPGLVKPSETLSLSCNVSGGSIRGHYWSWIRQSPGKRLEWLGYIYQSGYTKYNPSLKSRVSISLDTSKNKFSLNLKSVTTADTAVYYCAGRVAERGGDQFDFWGQGTLVTVSS
VL: SYELTQSPSLSVSPGQTASITCSGENLGEKHASWYQQKSGQSPVLVIYQDTKRPAGIPERFSGSNSGSTATLTISGTQPMDEADYFCQAWDANTANVIFGGGTMLTVL
notes: also called Clone 1003320107_F3
[9]
  binding result: binds
BSA [10]
  binding result: no binding (tested: 2 ng/µL)
